Measurements as given in patent publication US20130089875A1.

Tests used:
[1] = molecular target: PEGylated insulin-like-growth-factor I (human) (UniProt P05019); assay: sandwich ELISA: PEG-IGF-I at 0.03 ng/ml captured by biotinylated anti-PEG antibody on Streptavidin plate; dig-IGFBP-4 at 100 ng/ml; anti-digoxygenin-HRP/ABTS
[2] = molecular target: PEGylated insulin-like-growth-factor I (human) (UniProt P05019); assay: sandwich ELISA: PEG-IGF-I at 0.06 ng/ml captured by biotinylated anti-PEG antibody on Streptavidin plate; dig-IGFBP-4 at 100 ng/ml; anti-digoxygenin-HRP/ABTS
[3] = molecular target: PEGylated insulin-like-growth-factor I (human) (UniProt P05019); assay: sandwich ELISA: PEG-IGF-I at 0.13 ng/ml captured by biotinylated anti-PEG antibody on Streptavidin plate; dig-IGFBP-4 at 100 ng/ml; anti-digoxygenin-HRP/ABTS
[4] = molecular target: PEGylated insulin-like-growth-factor I (human) (UniProt P05019); assay: sandwich ELISA: PEG-IGF-I at 0.25 ng/ml captured by biotinylated anti-PEG antibody on Streptavidin plate; dig-IGFBP-4 at 100 ng/ml; anti-digoxygenin-HRP/ABTS
[5] = molecular target: PEGylated insulin-like-growth-factor I (human) (UniProt P05019); assay: sandwich ELISA: PEG-IGF-I at 0.50 ng/ml captured by biotinylated anti-PEG antibody on Streptavidin plate; dig-IGFBP-4 at 100 ng/ml; anti-digoxygenin-HRP/ABTS
[6] = molecular target: PEGylated insulin-like-growth-factor I (human) (UniProt P05019); assay: sandwich ELISA: PEG-IGF-I at 1.00 ng/ml captured by biotinylated anti-PEG antibody on Streptavidin plate; dig-IGFBP-4 at 100 ng/ml; anti-digoxygenin-HRP/ABTS
[7] = molecular target: PEGylated insulin-like-growth-factor I (human) (UniProt P05019); assay: sandwich ELISA: PEG-IGF-I at 2.00 ng/ml captured by biotinylated anti-PEG antibody on Streptavidin plate; dig-IGFBP-4 at 100 ng/ml; anti-digoxygenin-HRP/ABTS
[8] = molecular target: PEGylated insulin-like-growth-factor I (human) (UniProt P05019); assay: sandwich ELISA: PEG-IGF-I at 0.03 ng/ml captured by biotinylated anti-PEG antibody on Streptavidin plate; dig-IGFBP-4 at 100 ng/ml; anti-digoxygenin-HRP/ABTS; mean of three
[9] = molecular target: PEGylated insulin-like-growth-factor I (human) (UniProt P05019); assay: sandwich ELISA: PEG-IGF-I at 0.06 ng/ml captured by biotinylated anti-PEG antibody on Streptavidin plate; dig-IGFBP-4 at 100 ng/ml; anti-digoxygenin-HRP/ABTS; mean of three
[10] = molecular target: PEGylated insulin-like-growth-factor I (human) (UniProt P05019); assay: sandwich ELISA: PEG-IGF-I at 0.13 ng/ml captured by biotinylated anti-PEG antibody on Streptavidin plate; dig-IGFBP-4 at 100 ng/ml; anti-digoxygenin-HRP/ABTS; mean of three
[11] = molecular target: PEGylated insulin-like-growth-factor I (human) (UniProt P05019); assay: sandwich ELISA: PEG-IGF-I at 0.25 ng/ml captured by biotinylated anti-PEG antibody on Streptavidin plate; dig-IGFBP-4 at 100 ng/ml; anti-digoxygenin-HRP/ABTS; mean of three
[12] = molecular target: PEGylated insulin-like-growth-factor I (human) (UniProt P05019); assay: sandwich ELISA: PEG-IGF-I at 0.50 ng/ml captured by biotinylated anti-PEG antibody on Streptavidin plate; dig-IGFBP-4 at 100 ng/ml; anti-digoxygenin-HRP/ABTS; mean of three
[13] = molecular target: PEGylated insulin-like-growth-factor I (human) (UniProt P05019); assay: sandwich ELISA: PEG-IGF-I at 1.00 ng/ml captured by biotinylated anti-PEG antibody on Streptavidin plate; dig-IGFBP-4 at 100 ng/ml; anti-digoxygenin-HRP/ABTS; mean of three
[14] = molecular target: PEGylated insulin-like-growth-factor I (human) (UniProt P05019); assay: sandwich ELISA: PEG-IGF-I at 2.00 ng/ml captured by biotinylated anti-PEG antibody on Streptavidin plate; dig-IGFBP-4 at 100 ng/ml; anti-digoxygenin-HRP/ABTS; mean of three

B1: digoxygenylated insulin-like-growth-factor-binding-protein-4 (protein)
chain: DEAIHCPPCSEEKLARCRPPVGCEELVREPGCGCCATCALGLGMPCGVYTPRCGSGLRCYPPRGVEKPLHTLMHGQGVCMELAEIEAIQESLQPSDKDEGDHPNNSFSPCSAHDRRCLQKHFAKIRDRSTSGGKMKVNGAPREDARPVPQGSCQSELHRALERLAASQSRTHEDLYIIPIPNCDRNGNFHPKQCHPALDGQRGKCWCVDRKTGVKLPGGLEPKGELDCHQLADSFRE
modifications: digoxigenin coupled through digoxigenin 3-O-methylcarbonyl-epsilon-aminocaproic acid-N-hydroxysuccinimide ester (amine-reactive), molar ratio 1:5; positions not given
For B1, the OD (absorption signal), Sample No. 1 [1] was 0.141 OD, the OD (absorption signal), Sample No. 2 [1] was 0.159 OD and the OD (absorption signal), Sample No. 3 [1] was 0.149 OD. The OD (absorption signal), Sample No. 1 [2] was 0.25 OD, the OD (absorption signal), Sample No. 2 [2] was 0.252 OD and the OD (absorption signal), Sample No. 3 [2] was 0.243 OD. It also gave an OD (absorption signal), Sample No. 1 [3] of 0.439 OD, an OD (absorption signal), Sample No. 2 [3] of 0.428 OD and an OD (absorption signal), Sample No. 3 [3] of 0.436 OD. For the same binder, the OD (absorption signal), Sample No. 1 [4] was 0.757 OD, the OD (absorption signal), Sample No. 2 [4] was 0.734 OD and the OD (absorption signal), Sample No. 3 [4] was 0.766 OD. The OD (absorption signal), Sample No. 1 [5] was 1.21 OD, the OD (absorption signal), Sample No. 2 [5] was 1.25 OD and the OD (absorption signal), Sample No. 3 [5] was 1.22 OD. It also gave an OD (absorption signal), Sample No. 1 [6] of 1.66 OD, an OD (absorption signal), Sample No. 2 [6] of 1.66 OD and an OD (absorption signal), Sample No. 3 [6] of 1.73 OD. For the same binder, the OD (absorption signal), Sample No. 1 [7] was 2.04 OD, the OD (absorption signal), Sample No. 2 [7] was 2.06 OD and the OD (absorption signal), Sample No. 3 [7] was 2 OD. The OD (absorption signal), mean [8] was 0.15 OD, the OD (absorption signal), mean [9] was 0.248 OD and the OD (absorption signal), mean [10] was 0.434 OD. The OD (absorption signal), mean [11] was 0.752 OD, the OD (absorption signal), mean [12] was 1.23 OD and the OD (absorption signal), mean [13] was 1.69 OD. It also gave an OD (absorption signal), mean [14] of 2.03 OD.
